Here are results for one molecule from US20130150287A1.

The assay addresses integrin overexpressed on cancer cells. Put plainly: cell-based or functional assay.

B1: RGD peptide (…) (peptide)
peptide: CDCRGDCFC
As for B1, the reduction of cellular uptake of the recombinant protein particle by B16F10 cells after preincubation with 100-fold molar excess of RGD peptide came out at 40%, the reduction of cellular uptake of the recombinant protein particle by B16F10 cells after preincubation with 200-fold molar excess of RGD peptide is 95% and the reduction of cellular uptake of the recombinant protein particle by B16F10 cells after preincubation with 400-fold molar excess of RGD peptide amounted to 95%.
